Laboratory results: article PMC11851098 (Nucleic Acids Research, 2025)

T1: Suv3 helicase (UniProt Q8IYB8 23-786, Alexa 647 label (site not stated) in the MST assay)
T1 sequence (looked up): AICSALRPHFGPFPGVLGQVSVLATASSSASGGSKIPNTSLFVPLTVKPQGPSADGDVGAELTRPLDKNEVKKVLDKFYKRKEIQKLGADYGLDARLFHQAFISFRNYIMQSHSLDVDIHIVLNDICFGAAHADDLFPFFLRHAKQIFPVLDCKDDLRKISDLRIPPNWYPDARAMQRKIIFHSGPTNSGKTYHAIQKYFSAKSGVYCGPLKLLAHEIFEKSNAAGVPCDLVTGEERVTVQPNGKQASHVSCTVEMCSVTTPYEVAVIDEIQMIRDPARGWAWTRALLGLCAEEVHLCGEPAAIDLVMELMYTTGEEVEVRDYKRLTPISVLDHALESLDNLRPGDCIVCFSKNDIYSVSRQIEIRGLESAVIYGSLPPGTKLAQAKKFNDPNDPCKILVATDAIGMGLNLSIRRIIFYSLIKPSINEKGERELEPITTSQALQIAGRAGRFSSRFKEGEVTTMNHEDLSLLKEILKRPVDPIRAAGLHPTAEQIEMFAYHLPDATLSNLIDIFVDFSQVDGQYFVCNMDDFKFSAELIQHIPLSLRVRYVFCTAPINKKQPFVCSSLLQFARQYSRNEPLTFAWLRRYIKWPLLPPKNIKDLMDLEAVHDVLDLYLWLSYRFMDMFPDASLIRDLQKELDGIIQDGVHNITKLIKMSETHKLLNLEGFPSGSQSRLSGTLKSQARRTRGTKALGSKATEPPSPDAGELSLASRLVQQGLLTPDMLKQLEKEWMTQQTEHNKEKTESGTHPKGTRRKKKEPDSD

B1: human polynucleotide phosphorylase (hPNPase), wild type, residues 46-783 (enzyme, UniProt Q8TCS8 46-783, looked up)
chain: AVAVDLGNRKLEISSGKLARFADGSAVVQSGDTAVMVTAVSKTKPSPSQFMPLVVDYRQKAAAAGRIPTNYLRREIGTSDKEILTSRIIDRSIRPLFPAGYFYDTQVLCNLLAVDGVNEPDVLAINGASVALSLSDIPWNGPVGAVRIGIIDGEYVVNPTRKEMSSSTLNLVVAGAPKSQIVMLEASAENILQQDFCHAIKVGVKYTQQIIQGIQQLVKETGVTKRTPQKLFTPSPEIVKYTHKLAMERLYAVFTDYEHDKVSRDEAVNKIRLDTEEQLKEKFPEADPYEIIESFNVVAKEVFRSIVLNEYKRCDGRDLTSLRNVSCEVDMFKTLHGSALFQRGQTQVLCTVTFDSLESGIKSDQVITAINGIKDKNFMLHYEFPPYATNEIGKVTGLNRRELGHGALAEKALYPVIPRDFPFTIRVTSEVLESNGSSSMASACGGSLALMDSGVPISSAVAGVAIGLVTKTDPEKGEIEDYRLLTDILGIEDYNGDMDFKIAGTNKGITALQADIKLPGIPIKIVMEAIQQASVAKKEILQIMNKTISKPRASRKENGPVVETVQVPLSKRAKFVGPGGYNLKKLQAETGVTISQVDEETFSVFAPTPSAMHEARDFITEICKDDQEQQLEFGAVYTATITEIRDTGVMVKLYPNMTAVLLHNTQLDQRKIKHPTALGLEVGQEIQVKYFGRDPADGRMRLSRKVLQSPATTVVRTLNDRSSIVMGEPISQSSSNSQ
B2: hPNPase P467S-S484A double mutant, residues 46-783 (enzyme, human, UniProt Q8TCS8 46-783, looked up)
chain: AVAVDLGNRKLEISSGKLARFADGSAVVQSGDTAVMVTAVSKTKPSPSQFMPLVVDYRQKAAAAGRIPTNYLRREIGTSDKEILTSRIIDRSIRPLFPAGYFYDTQVLCNLLAVDGVNEPDVLAINGASVALSLSDIPWNGPVGAVRIGIIDGEYVVNPTRKEMSSSTLNLVVAGAPKSQIVMLEASAENILQQDFCHAIKVGVKYTQQIIQGIQQLVKETGVTKRTPQKLFTPSPEIVKYTHKLAMERLYAVFTDYEHDKVSRDEAVNKIRLDTEEQLKEKFPEADPYEIIESFNVVAKEVFRSIVLNEYKRCDGRDLTSLRNVSCEVDMFKTLHGSALFQRGQTQVLCTVTFDSLESGIKSDQVITAINGIKDKNFMLHYEFPPYATNEIGKVTGLNRRELGHGALAEKALYPVIPRDFSFTIRVTSEVLESNGSSAMASACGGSLALMDSGVPISSAVAGVAIGLVTKTDPEKGEIEDYRLLTDILGIEDYNGDMDFKIAGTNKGITALQADIKLPGIPIKIVMEAIQQASVAKKEILQIMNKTISKPRASRKENGPVVETVQVPLSKRAKFVGPGGYNLKKLQAETGVTISQVDEETFSVFAPTPSAMHEARDFITEICKDDQEQQLEFGAVYTATITEIRDTGVMVKLYPNMTAVLLHNTQLDQRKIKHPTALGLEVGQEIQVKYFGRDPADGRMRLSRKVLQSPATTVVRTLNDRSSIVMGEPISQSSSNSQ
B3: hPNPase S484A mutant (inactive) (enzyme, human, UniProt Q8TCS8 46-783, looked up)
chain: AVAVDLGNRKLEISSGKLARFADGSAVVQSGDTAVMVTAVSKTKPSPSQFMPLVVDYRQKAAAAGRIPTNYLRREIGTSDKEILTSRIIDRSIRPLFPAGYFYDTQVLCNLLAVDGVNEPDVLAINGASVALSLSDIPWNGPVGAVRIGIIDGEYVVNPTRKEMSSSTLNLVVAGAPKSQIVMLEASAENILQQDFCHAIKVGVKYTQQIIQGIQQLVKETGVTKRTPQKLFTPSPEIVKYTHKLAMERLYAVFTDYEHDKVSRDEAVNKIRLDTEEQLKEKFPEADPYEIIESFNVVAKEVFRSIVLNEYKRCDGRDLTSLRNVSCEVDMFKTLHGSALFQRGQTQVLCTVTFDSLESGIKSDQVITAINGIKDKNFMLHYEFPPYATNEIGKVTGLNRRELGHGALAEKALYPVIPRDFPFTIRVTSEVLESNGSSAMASACGGSLALMDSGVPISSAVAGVAIGLVTKTDPEKGEIEDYRLLTDILGIEDYNGDMDFKIAGTNKGITALQADIKLPGIPIKIVMEAIQQASVAKKEILQIMNKTISKPRASRKENGPVVETVQVPLSKRAKFVGPGGYNLKKLQAETGVTISQVDEETFSVFAPTPSAMHEARDFITEICKDDQEQQLEFGAVYTATITEIRDTGVMVKLYPNMTAVLLHNTQLDQRKIKHPTALGLEVGQEIQVKYFGRDPADGRMRLSRKVLQSPATTVVRTLNDRSSIVMGEPISQSSSNSQ
B4: hPNPase D713Y-S484A double mutant, residues 46-783 (enzyme, human, UniProt Q8TCS8 46-783, looked up)
chain: AVAVDLGNRKLEISSGKLARFADGSAVVQSGDTAVMVTAVSKTKPSPSQFMPLVVDYRQKAAAAGRIPTNYLRREIGTSDKEILTSRIIDRSIRPLFPAGYFYDTQVLCNLLAVDGVNEPDVLAINGASVALSLSDIPWNGPVGAVRIGIIDGEYVVNPTRKEMSSSTLNLVVAGAPKSQIVMLEASAENILQQDFCHAIKVGVKYTQQIIQGIQQLVKETGVTKRTPQKLFTPSPEIVKYTHKLAMERLYAVFTDYEHDKVSRDEAVNKIRLDTEEQLKEKFPEADPYEIIESFNVVAKEVFRSIVLNEYKRCDGRDLTSLRNVSCEVDMFKTLHGSALFQRGQTQVLCTVTFDSLESGIKSDQVITAINGIKDKNFMLHYEFPPYATNEIGKVTGLNRRELGHGALAEKALYPVIPRDFPFTIRVTSEVLESNGSSAMASACGGSLALMDSGVPISSAVAGVAIGLVTKTDPEKGEIEDYRLLTDILGIEDYNGDMDFKIAGTNKGITALQADIKLPGIPIKIVMEAIQQASVAKKEILQIMNKTISKPRASRKENGPVVETVQVPLSKRAKFVGPGGYNLKKLQAETGVTISQVDEETFSVFAPTPSAMHEARDFITEICKDDQEQQLEFGAVYTATITEIRDTGVMVKLYPNMTAVLLHNTQLYQRKIKHPTALGLEVGQEIQVKYFGRDPADGRMRLSRKVLQSPATTVVRTLNDRSSIVMGEPISQSSSNSQ
B5: hPNPase G499R-S484A double mutant, residues 46-783 (enzyme, human, UniProt Q8TCS8 46-783, looked up)
chain: AVAVDLGNRKLEISSGKLARFADGSAVVQSGDTAVMVTAVSKTKPSPSQFMPLVVDYRQKAAAAGRIPTNYLRREIGTSDKEILTSRIIDRSIRPLFPAGYFYDTQVLCNLLAVDGVNEPDVLAINGASVALSLSDIPWNGPVGAVRIGIIDGEYVVNPTRKEMSSSTLNLVVAGAPKSQIVMLEASAENILQQDFCHAIKVGVKYTQQIIQGIQQLVKETGVTKRTPQKLFTPSPEIVKYTHKLAMERLYAVFTDYEHDKVSRDEAVNKIRLDTEEQLKEKFPEADPYEIIESFNVVAKEVFRSIVLNEYKRCDGRDLTSLRNVSCEVDMFKTLHGSALFQRGQTQVLCTVTFDSLESGIKSDQVITAINGIKDKNFMLHYEFPPYATNEIGKVTGLNRRELGHGALAEKALYPVIPRDFPFTIRVTSEVLESNGSSAMASACGGSLALMDSRVPISSAVAGVAIGLVTKTDPEKGEIEDYRLLTDILGIEDYNGDMDFKIAGTNKGITALQADIKLPGIPIKIVMEAIQQASVAKKEILQIMNKTISKPRASRKENGPVVETVQVPLSKRAKFVGPGGYNLKKLQAETGVTISQVDEETFSVFAPTPSAMHEARDFITEICKDDQEQQLEFGAVYTATITEIRDTGVMVKLYPNMTAVLLHNTQLDQRKIKHPTALGLEVGQEIQVKYFGRDPADGRMRLSRKVLQSPATTVVRTLNDRSSIVMGEPISQSSSNSQ
B6: hPNPase D713Y mutant, residues 46-783 (enzyme, human, UniProt Q8TCS8 46-783, looked up)
chain: AVAVDLGNRKLEISSGKLARFADGSAVVQSGDTAVMVTAVSKTKPSPSQFMPLVVDYRQKAAAAGRIPTNYLRREIGTSDKEILTSRIIDRSIRPLFPAGYFYDTQVLCNLLAVDGVNEPDVLAINGASVALSLSDIPWNGPVGAVRIGIIDGEYVVNPTRKEMSSSTLNLVVAGAPKSQIVMLEASAENILQQDFCHAIKVGVKYTQQIIQGIQQLVKETGVTKRTPQKLFTPSPEIVKYTHKLAMERLYAVFTDYEHDKVSRDEAVNKIRLDTEEQLKEKFPEADPYEIIESFNVVAKEVFRSIVLNEYKRCDGRDLTSLRNVSCEVDMFKTLHGSALFQRGQTQVLCTVTFDSLESGIKSDQVITAINGIKDKNFMLHYEFPPYATNEIGKVTGLNRRELGHGALAEKALYPVIPRDFPFTIRVTSEVLESNGSSSMASACGGSLALMDSGVPISSAVAGVAIGLVTKTDPEKGEIEDYRLLTDILGIEDYNGDMDFKIAGTNKGITALQADIKLPGIPIKIVMEAIQQASVAKKEILQIMNKTISKPRASRKENGPVVETVQVPLSKRAKFVGPGGYNLKKLQAETGVTISQVDEETFSVFAPTPSAMHEARDFITEICKDDQEQQLEFGAVYTATITEIRDTGVMVKLYPNMTAVLLHNTQLYQRKIKHPTALGLEVGQEIQVKYFGRDPADGRMRLSRKVLQSPATTVVRTLNDRSSIVMGEPISQSSSNSQ
B7: hPNPase G499R mutant, residues 46-783 (enzyme, human, UniProt Q8TCS8 46-783, looked up)
chain: AVAVDLGNRKLEISSGKLARFADGSAVVQSGDTAVMVTAVSKTKPSPSQFMPLVVDYRQKAAAAGRIPTNYLRREIGTSDKEILTSRIIDRSIRPLFPAGYFYDTQVLCNLLAVDGVNEPDVLAINGASVALSLSDIPWNGPVGAVRIGIIDGEYVVNPTRKEMSSSTLNLVVAGAPKSQIVMLEASAENILQQDFCHAIKVGVKYTQQIIQGIQQLVKETGVTKRTPQKLFTPSPEIVKYTHKLAMERLYAVFTDYEHDKVSRDEAVNKIRLDTEEQLKEKFPEADPYEIIESFNVVAKEVFRSIVLNEYKRCDGRDLTSLRNVSCEVDMFKTLHGSALFQRGQTQVLCTVTFDSLESGIKSDQVITAINGIKDKNFMLHYEFPPYATNEIGKVTGLNRRELGHGALAEKALYPVIPRDFPFTIRVTSEVLESNGSSSMASACGGSLALMDSRVPISSAVAGVAIGLVTKTDPEKGEIEDYRLLTDILGIEDYNGDMDFKIAGTNKGITALQADIKLPGIPIKIVMEAIQQASVAKKEILQIMNKTISKPRASRKENGPVVETVQVPLSKRAKFVGPGGYNLKKLQAETGVTISQVDEETFSVFAPTPSAMHEARDFITEICKDDQEQQLEFGAVYTATITEIRDTGVMVKLYPNMTAVLLHNTQLDQRKIKHPTALGLEVGQEIQVKYFGRDPADGRMRLSRKVLQSPATTVVRTLNDRSSIVMGEPISQSSSNSQ

Experiments:
SEC = biological target: the molecule itself; assay: SEC
Suv3 helicase = biological target: T1, Suv3 helicase; assay: MST
SAXS = biological target: the molecule itself; assay: SAXS

Binder	stoichiometry N (SEC)	Kd (Suv3 helicase) [nM]	stoichiometry N (SAXS)
B1	3	297 ± 80	–
B2	3	–	–
B3	–	–	3
B4	3	–	–
B5	3	–	–
B6	–	3890 ± 545	3
B7	–	474 ± 70	3
